Experiments:
[1] = target: Biotinylated UBE3A HECT domain, wild type (METRIS) (human); assay: METRIS (mechanically transduced immunosorbent assay, rolling magnetic probes); biotinylated ubiquitin on streptavidin-coated ferromagnetic beads rolling on avidin-coated slides coated with biotinylated UBE3A HECT domain; rotating magnetic field 1 Hz for 5 s; read-out rolling parameter (dimensionless)
[2] = target: Biotinylated UBE3A HECT domain Q588E (METRIS) (human); assay: as above

“Biotinylated Cys-ubiquitin (ubiquitin variant with an N-terminal cysteine) on streptavidin-coated ferromagnetic particles (from UniProt P0CG48 1-76)” gave a rolling parameter (ζ) [1] of 0.178.

Substance “Biotinylated Cys-ubiquitin (ubiquitin variant with an N-terminal cysteine) on streptavidin-coated ferromagnetic particles (from UniProt P0CG48 1-76) (natural protein)” has a rolling parameter (ζ) [2] of 0.247.
